Experimental data as given in patent publication US20160136236A1.

Assays:
[1] = target: wild type (WT) human low density lipoprotein receptor (LDLR) (human) (UniProt P01130); assay: flow cytometry competition; 0.5 ug/mL LDL-BODIPY with 10 ug/mL unlabeled LDL on HEK293 cells transfected with LDLR mRNA
[2] = target: wild type (WT) human low density lipoprotein receptor (LDLR) (human) (UniProt P01130); assay: flow cytometry competition; 0.5 ug/mL LDL-BODIPY with 0.5 ug/mL unlabeled LDL on HEK293 cells transfected with LDLR mRNA
[3] = target: wild type (WT) human low density lipoprotein receptor (LDLR) (human) (UniProt P01130); assay: flow cytometry competition; 0.5 ug/mL LDL-BODIPY with 500 ug/mL unlabeled LDL on HEK293 cells transfected with LDLR mRNA
[4] = target: wild type (WT) human low density lipoprotein receptor (LDLR) (human) (UniProt P01130); assay: flow cytometry competition; 0.5 ug/mL LDL-BODIPY with 0.1 ug/mL unlabeled LDL on HEK293 cells transfected with LDLR mRNA
[5] = target: wild type (WT) human low density lipoprotein receptor (LDLR) (human) (UniProt P01130); assay: flow cytometry competition; 0.5 ug/mL LDL-BODIPY with 1 ug/mL unlabeled LDL on HEK293 cells transfected with LDLR mRNA
[6] = target: wild type (WT) human low density lipoprotein receptor (LDLR) (human) (UniProt P01130); assay: flow cytometry competition; 0.5 ug/mL LDL-BODIPY with 0.01 ug/mL unlabeled LDL on HEK293 cells transfected with LDLR mRNA
[7] = target: wild type (WT) human low density lipoprotein receptor (LDLR) (human) (UniProt P01130); assay: flow cytometry competition; 0.5 ug/mL LDL-BODIPY with 0 ug/mL unlabeled LDL on HEK293 cells transfected with LDLR mRNA
[8] = target: wild type (WT) human low density lipoprotein receptor (LDLR) (human) (UniProt P01130); assay: flow cytometry competition; 0.5 ug/mL LDL-BODIPY with 100 ug/mL unlabeled LDL on HEK293 cells transfected with LDLR mRNA

Chain of wild type (WT) human low density lipoprotein receptor (LDLR) (human) (P01130 22-860 limits assumed): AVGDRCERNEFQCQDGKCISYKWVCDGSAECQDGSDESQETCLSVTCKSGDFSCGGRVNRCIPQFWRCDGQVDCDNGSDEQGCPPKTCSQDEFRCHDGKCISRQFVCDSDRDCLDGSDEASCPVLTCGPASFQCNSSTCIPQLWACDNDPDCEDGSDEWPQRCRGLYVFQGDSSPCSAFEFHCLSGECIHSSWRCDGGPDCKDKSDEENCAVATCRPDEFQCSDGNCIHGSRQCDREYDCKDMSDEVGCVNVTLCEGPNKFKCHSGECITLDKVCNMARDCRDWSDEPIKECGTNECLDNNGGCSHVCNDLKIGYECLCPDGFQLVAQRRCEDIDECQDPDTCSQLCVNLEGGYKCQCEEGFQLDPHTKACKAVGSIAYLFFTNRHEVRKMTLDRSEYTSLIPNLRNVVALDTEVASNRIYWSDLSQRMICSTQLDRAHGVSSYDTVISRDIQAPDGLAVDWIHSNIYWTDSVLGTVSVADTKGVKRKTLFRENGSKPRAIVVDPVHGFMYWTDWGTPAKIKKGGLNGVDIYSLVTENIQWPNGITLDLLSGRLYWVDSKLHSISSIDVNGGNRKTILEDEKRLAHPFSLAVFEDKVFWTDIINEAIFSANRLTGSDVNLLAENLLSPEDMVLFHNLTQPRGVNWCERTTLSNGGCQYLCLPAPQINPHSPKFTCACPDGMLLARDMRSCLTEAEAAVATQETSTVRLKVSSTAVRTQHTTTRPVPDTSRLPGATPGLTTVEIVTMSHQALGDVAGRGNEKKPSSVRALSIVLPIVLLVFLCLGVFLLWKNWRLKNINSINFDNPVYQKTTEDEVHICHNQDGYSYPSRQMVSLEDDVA

Labeled cells detected (%) [1]: 48.4%
Labeled cells detected (%) [2]: 64.1%
Labeled cells detected (%) [3]: 0.9%
Labeled cells detected (%) [4]: 59%
Labeled cells detected (%) [5]: 76%
Labeled cells detected (%) [6]: 97.7%
Labeled cells detected (%) [7]: 100%
Labeled cells detected (%) [8]: 3.2%
Substance: unlabeled LDL (low density lipoprotein), P04114 28-4563
